The source of these data is the supplement of paper PMC12764529.

± gives the half width of the 95% confidence interval.

Series [1] in a line: folding stability dG unfold (combined trypsin and chymotrypsin); higher = more stable. The procedure, abridged:
(§1)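 Mini-proteins designed to be under 80 residues and free of cysteine were carried in a PA-tagged cDNA display construct and digested with trypsin and with chymotrypsin. Each protease was applied at 11 threefold-diluted concentrations, alongside a no-protease condition, before sequencing. K50 came from Bayesian fitting of the sequencing counts, and unfolding free energy was obtained by comparing it with a sequence-predicted unfolded-state K50 and a shared folded-state K50, for each protease separately or for both together. Designs were retained only if their AlphaFold2 dimer inter-PAE exceeded 15.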

The nature of series [2]: folding stability dG unfold from chymotrypsin proteolysis; higher = more stable. The gist of the method: as §1
The nature of series [3]: folding stability dG unfold from trypsin proteolysis; higher = more stable. The gist of the method: as §1

On to “SAGGKLIIVIEVNGETIEVDLEEAETLEEAIQKVLDEIRERFPEIGTVRIKVFDEKGKLIKEIEIKLKSAGG [r13_257_TrROS_Hall]”, for which the “folding stability dG unfold” value was found to be 3.51 ± 0.17 kcal/mol in series [1], 3.6 ± 0.18 kcal/mol in series [2] and 3.25 ± 0.12 kcal/mol in series [3].
For “SAGGKLLEELNVEKVEVVEVKEFSLPPLPLLVLLPTVTVTFKDGSKVKFKVLFLYDPSNPKPIVVAGSAGGS [r8_422_TrMRF]”, in that order: 3.07 ± 0.16 kcal/mol, 3.64 ± 0.048 kcal/mol and 2.42 ± 0.1 kcal/mol.
Turning to “SAGGKLPKLPPGQIEIMDFQIEPDPDGRYKMSFMITITAPDNGKKVVVMLEMWMPPDGEMKTGIGIMPSAGG [r13_263_TrROS]”, the “folding stability dG unfold” value was 2.65 ± 0.34 kcal/mol in series [1], 2.85 ± 0.15 kcal/mol in series [2] and 1.9 ± 0.14 kcal/mol in series [3].
In the case of “SAGGKLTLELEFELEDGLRVRLRVEVDEDGELRVTLEVEPEPPPPPIRVVKNEDGSEYVYRNGKLYKLSAGG [r13_151_TrROS_Hall]”, the “folding stability dG unfold” value in series [1] came out at 4.16 ± 0.84 kcal/mol; in series [2], 5.18 ± 0.45 kcal/mol; in series [3] it was 3.55 ± 0.16 kcal/mol.
For “SAGGKMVKIKIVVEVKVEEEVKEGEKVETFKVELTIELPEEEVEKLKAELEKLFPDVKIVEIEKVEPSAGGS [r8_490_TrROS_Hall]”, the “folding stability dG unfold” value in series [1] came out at 3.7 ± 0.34 kcal/mol; in series [2], 3.86 ± 0.47 kcal/mol; in series [3], 3.39 ± 0.24 kcal/mol.
For “SAGGKNVKKYVPIEIEIEAPSPEVAEATAEEIEKIIREKFPGAKVEVEMEPLPDGGYKLKVKVYVPVGSAGG [r13_17_TrMRF]”, the “folding stability dG unfold” value in series [1] was found to be 3.11 ± 0.07 kcal/mol; in series [2], 3.47 ± 0.059 kcal/mol; in series [3] it was 1.82 ± 0.059 kcal/mol.
“SAGGKPAKPTRLDFPDDDVKTVPANTKIILTRPDGSKLVIELPEEEFTAKPDEWVFETPTSKITFPIASAGG [r13_643_TrMRF]”: the results for the “folding stability dG unfold” value in series [1], in series [2] and in series [3] were 0.725 ± 0.21 kcal/mol, 0.657 ± 0.15 kcal/mol and 0.767 ± 0.092 kcal/mol, respectively.
As for “SAGGKPGEKPRIRIQVKVRYPGNGRKQSITIEIVPDAIEQGLSASELADEIARKMGMPVKIEEIEILSAGGS [r16_554_TrROS]”, the results for the “folding stability dG unfold” value in series [1], in series [2] and in series [3] were 1.79 ± 0.04 kcal/mol, 1.692 ± 0.013 kcal/mol and 1.873 ± 0.015 kcal/mol, respectively.
Regarding “SAGGKPKEIKIKVEVEEKEVNGKKYLVVKIELEVDGKKIEIELVVEMSEEEKEKAKKLAEELLKKLKSAGGS [r8_480_TrROS_Hall]”, the “folding stability dG unfold” value in series [1] amounted to 2.82 ± 0.4 kcal/mol; in series [2] it was 2.77 ± 0.22 kcal/mol; in series [3], 2.6 ± 0.21 kcal/mol.
With “SAGGKPLTVEDAKELAESLAKPLKEELGLGNVKILAAPVEVGGEEGKPAEVRIGFLFDLSEDGEFVGSAGGS [r16_751_TrMRF]”, the “folding stability dG unfold” value in series [1] is -0.112 ± 0.23 kcal/mol; in series [2], 0.0162 ± 0.16 kcal/mol; in series [3], -0.405 ± 0.31 kcal/mol.
In the case of “SAGGKPNWVWFKITINVTPEQLENMTLDEIADRVIDELMKLGFPIKKIEIDEIQWDGDRVTIYIRIRVSAGG [r13_432_TrROS]”, the “folding stability dG unfold” value in series [1] was found to be 4.35 ± 0.14 kcal/mol; in series [2] it was 4.59 ± 0.099 kcal/mol; in series [3], 4.18 ± 0.16 kcal/mol.
Regarding “SAGGKPPGLSEIPLPDNKTEKVPVNSDIVLKRPDGTELKYKLPPEPVTTEKNKYTIKLPNGEITIPINSAGG [r13_643_JUSTAS]”, the “folding stability dG unfold” value in series [1] was -0.0992 ± 0.32 kcal/mol; in series [2], -0.0683 ± 0.26 kcal/mol; in series [3] it was -1.03 ± 0.26 kcal/mol.
For “SAGGKPPKIVVKVEKAPNPETGTYTYKVVLYDPVTGKAYVKPVKTKTPEELEKKAKEVAEELAKELASAGGS [r8_480_TrMRF]”, in that order: 1.17 ± 0.084 kcal/mol, 1.34 ± 0.12 kcal/mol and 0.727 ± 0.025 kcal/mol.
For the sequence “SAGGKPRILLRRETAPDGRPYYVLQVLRRDPSDDGWTPVLEHRFETPEEAERYARELAEKTGYELVGSAGGS [r16_512_TrMRF]”, the “folding stability dG unfold” value came to 4.72 ± 0.075 kcal/mol in series [1], 4.9 ± 0.11 kcal/mol in series [2] and 4 ± 0.11 kcal/mol in series [3].
As for “SAGGKRRTINFDIEGMTPEKFVHMARMAIRNLPDPEQVTITINMRNPMWRRWFIELAKELPGIEIEFMSAGG [r13_718_TrROS]”, the figures for the “folding stability dG unfold” value in series [1], in series [2] and in series [3] were 3.19 ± 0.15 kcal/mol, 3.43 ± 0.044 kcal/mol and 2.52 ± 0.061 kcal/mol, respectively.
In the case of “SAGGKTIEVWFLFPPGMPPEEVASTIAKLLPPGFKIDVEILEVQPDPGGEDYIIFKATIYYPDDGQPISAGG [r13_12_TrROS]”, the “folding stability dG unfold” value came to 4.26 ± 0.25 kcal/mol in series [1], 4.68 ± 0.16 kcal/mol in series [2] and 3.34 ± 0.15 kcal/mol in series [3].
As for “SAGGKTIPIWFRVPPGMTPEEAADELADEIANELQQQNGKEIEIKIDDVEPNPNGWNIVRIKIEVDPSAGGS [r8_156_TrROS]”, the “folding stability dG unfold” value in series [1] came out at 0.26 ± 0.32 kcal/mol; in series [2] it was 0.433 ± 0.43 kcal/mol; in series [3], 0.176 ± 0.3 kcal/mol.
On to “SAGGKTIYFPISEARNFLKEAIDNGLDNIRIEVFNGDKPREIDIPPGNLDDLIDNIPPNSWVQIEPKSAGGS [r16_636_TrROS]”, for which the “folding stability dG unfold” value in series [1] is 0.221 ± 0.072 kcal/mol; in series [2], 0.536 ± 0.089 kcal/mol; in series [3], -0.645 ± 0.095 kcal/mol.
“SAGGKTLVITVEAPPEDWDKILELAREALELGGDVVVVAPFPDGLTVTVRAEKPLGKIVEVTVAPDDASAGG [r13_873_TrMRF]”: the entries for the “folding stability dG unfold” value in series [1], in series [2] and in series [3] were 1.15 ± 0.095 kcal/mol, 1.5 ± 0.071 kcal/mol and 0.578 ± 0.053 kcal/mol, respectively.
For “SAGGKTVTTPEQILELIKENPGKTYTITITVPKENQKKVEELKKALEEAGLTVEENENGTLTVTIKPSAGGS [r16_335_TrROS_Hall]”, the “folding stability dG unfold” value in series [1] was determined as 3.42 ± 0.28 kcal/mol; in series [2], 3.89 ± 0.14 kcal/mol; in series [3], 2.2 ± 0.17 kcal/mol.
Turning to “SAGGKVFTPEHLEELLKNVPADDPNATLTVTVEVPVVVLPTTDGDDNPLPAAAAPATVTLPITVLPASAGGS [r16_708_TrMRF]”, the results for the “folding stability dG unfold” value in series [1], in series [2] and in series [3] were 0.837 ± 0.07 kcal/mol, 1.2 ± 0.018 kcal/mol and 0.0702 ± 0.072 kcal/mol, respectively.
For “SAGGKVKIVKIEIEEVDGKLKIRIVVEVDTPEDLEALKKAGVKKLKVEKRRLPNGRLLVVIEVEVEVKSAGG [r13_506_TrROS_Hall]” the same measures were 3.42 ± 0.062 kcal/mol, 3.86 ± 0.074 kcal/mol and 2.46 ± 0.077 kcal/mol.
For “SAGGKVKVVEIRYFPGTNTVEILVEDPGPYLATIRIPAAPDAPIEIDEDANFRVPDAPVVLGEVRPPSAGGS [r16_515_TrMRF]”, in that order: 1.09 ± 0.072 kcal/mol, 0.843 ± 0.12 kcal/mol and 1.19 ± 0.027 kcal/mol.
For “SAGGKVVVVPFPGPVTPETVAALAAKFIEEGLYDVPLVVVSEVEGRRPDGRPGRRRFGFVYVAKAPKSAGGS [r16_44_TrMRF]” the same measures were 1.59 ± 0.1 kcal/mol, 1.98 ± 0.13 kcal/mol and 1.23 ± 0.051 kcal/mol.
In the case of “SAGGKVYRLPDGTRVLEVEVDGELYRLVVRRPDGEELVLEFESREEALEAAKALAEAGWEIVAVERVPSAGG [r13_727_TrROS_Hall]”, the results for the “folding stability dG unfold” value in series [1], in series [2] and in series [3] were 0.86 ± 0.06 kcal/mol, 0.807 ± 0.062 kcal/mol and 0.787 ± 0.038 kcal/mol, respectively.
In the case of “SAGGKVYYIEIPPELLEAFPDLVVEPVEQPEDFVVAPVFLSDKVLLVPIRVFSEDGKELFDFTLTSNPSAGG [r13_129_TrMRF]”, the “folding stability dG unfold” value in series [1] turned out to be 1.62 ± 0.037 kcal/mol; in series [2], 1.77 ± 0.024 kcal/mol; in series [3], 1.18 ± 0.027 kcal/mol.
